Reference: IntAct's records for PubMed 10664449

B1: Guanine nucleotide-binding protein subunit beta (Saccharomyces cerevisiae), P18851 (parent)
chain: MAAHQMDSITYSNNVTQQYIQPQSLQDISAVEDEIQNKIEAARQESKQLHAQINKAKHKIQDASLFQMANKVTSLTKNKINLKPNIVLKGHNNKISDFRWSRDSKRILSASQDGFMLIWDSASGLKQNAIPLDSQWVLSCAISPSSTLVASAGLNNNCTIYRVSKENRVAQNVASIFKGHTCYISDIEFTDNAHILTASGDMTCALWDIPKAKRVREYSDHLGDVLALAIPEEPNSENSSNTFASCGSDGYTYIWDSRSPSAVQSFYVNDSDINALRFFKDGMSIVAGSDNGAINMYDLRSDCSIATFSLFRGYEERTPTPTYMAANMEYNTAQSPQTLKSTSSSYLDNQGVVSLDFSASGRLMYSCYTDIGCVVWDVLKGEIVGKLEGHGGRVTGVRSSPDGLAVCTGSWDSTMKIWSPGYQ
partner: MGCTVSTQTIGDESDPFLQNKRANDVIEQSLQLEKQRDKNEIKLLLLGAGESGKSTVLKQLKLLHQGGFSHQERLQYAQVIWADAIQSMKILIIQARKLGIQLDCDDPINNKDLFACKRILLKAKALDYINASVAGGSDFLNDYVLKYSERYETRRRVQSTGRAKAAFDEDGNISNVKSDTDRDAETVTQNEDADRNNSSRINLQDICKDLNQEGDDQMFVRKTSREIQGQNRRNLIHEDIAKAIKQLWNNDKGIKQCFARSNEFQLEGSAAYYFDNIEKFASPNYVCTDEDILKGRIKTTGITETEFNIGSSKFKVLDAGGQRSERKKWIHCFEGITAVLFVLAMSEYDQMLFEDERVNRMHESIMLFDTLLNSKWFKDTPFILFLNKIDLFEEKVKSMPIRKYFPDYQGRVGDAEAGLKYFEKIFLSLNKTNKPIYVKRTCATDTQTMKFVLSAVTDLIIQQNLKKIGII

Variants of: B1
Settings: with gpa1_yeast GPA1, P08539

effect of a mutation on the interaction | Variant
decreasing interaction | L132F
